Paper PMC7915030, “A Novel Artificially Humanized Anti-Cripto-1 Antibody Suppressing Cancer Cell Growth” (International Journal of Molecular Sciences, 2021)

B1: anti-CR-1 antibody Clone 90 (antibody, V domains shown)
VH: QVQLQQSGPGLVKPSQTLSLTCAISGDSVSSNSAAWNWIRQSPSRGLEWLGRTYYRSKWYNDYAVSVKSRITIKPDTSKNQFSLQLYSVTPEDTAMYYCARDSYGMDVWGQGTTATVSS
VL: NFMLTQPPSASGTPGQRVSISCSGSSSNIGSSSVYWCRQLPGTAPKLLIYDVTNRPSGVPDRFSASKSGTSASLAISGLRSEDESDYYCVLYMGSGISVFGGGTKVTVL
notes: VH of phage clone 90; human IgG heavy chain constant region CH1-CH2-CH3 from the vector pHIgH5zeo; VL of phage clone 90; human IgG light chain constant region CL from the vector pHIgL5hyg; whole human IgG built from the VH and VL of the scFv phage clone; also called anti-CR-1 Ab; source: ExpiCHO-S, transfected, conditioned medium
B2: anti-CR-1 antibody Clone 331 (antibody, V domains shown)
VH: QVQLQQSGPGQVKPSQSLSLICAISGDSVSTSSAAWNWIRQSPSRGFEWLGRTFYRSGWFTDYAASVKSRITINPDTSKNQFSLQLNSVTPEDTAMYYCARIRSGYRFDYWGQGILVAVSS
VL: NFMLTQPPSASGTPGQRVTVSCSGSSSNIGSNFVFWYQHLPGKAPKLLIYRNHQRPSGVPDRFSGSKSGTSASLAISGLRSEDESDYYCQVWDDRNVVFGGGTQLTVL
notes: VH of phage clone 331; human IgG heavy chain constant region CH1-CH2-CH3 from the vector pHIgH5zeo; VL of phage clone 331; human IgG light chain constant region CL from the vector pHIgL5hyg; whole human IgG built from the VH and VL of the scFv phage clone; also called anti-CR-1 Ab; source: ExpiCHO-S, transfected, conditioned medium
B3: anti-CR-1 antibody Clone 224 (antibody, V domains shown)
VH: QVQLQQSGPGLVKPSQTLSLTCAISGDSVSSNSATWNWIRQSPSRGLEWLGRTYYKSKWYNEYAVSVKSRITINPDTSKNQFSLQLDSVTPEDTAMYYCATDRYYARDYWGRGTLVTVSS
VL: QSVLIQPRSVSGSPGQSVTISCTGTSGDVGYYDHVSWYQQHPGKAPKIMIYDVTQRPSGVPDRFSGSRSGNTASLTISGLQADDESDYYCVLYLGNGIWVFGGGTQLTVL
notes: VH of phage clone 224; human IgG heavy chain constant region CH1-CH2-CH3 from the vector pHIgH5zeo; VL of phage clone 224; human IgG light chain constant region CL from the vector pHIgL5hyg; whole human IgG built from the VH and VL of the scFv phage clone; also called anti-CR-1 Ab; source: ExpiCHO-S, transfected, conditioned medium
B4: anti-CR-1 antibody Clone 35 (antibody, V domains shown)
VH: QVQLQQSGPGLVKPSQTLSLTCAISGNSVSSNSAAWNWIRRSPSRGLEWLGRTYYRSKWYNDYAVSVKSRITIKPDTSKNQFSLQLNSVTPEDTAMYYCARGFCSGGRCYSFDYWGPGTLVTVSS
VL: QSVLTQPASVSGSPGQSITISCTGTDSDVGAYGSASWYRHSPGKAPQLIIYDVTNRPSGVSNRFYGSKSGNTASLTISGLQAEDEADYYCQAWDSGIHVVFGGGTQLTVL
notes: VH of phage clone 35; human IgG heavy chain constant region CH1-CH2-CH3 from the vector pHIgH5zeo; VL of phage clone 35; human IgG light chain constant region CL from the vector pHIgL5hyg; whole human IgG built from the VH and VL of the scFv phage clone; also called anti-CR-1 Ab Clone 35; anti-CR-1 Ab; source: ExpiCHO-S, transfected, conditioned medium; also purified (HiTrap protein A)
B5: anti-CR-1 antibody Clone 35 (antibody, V domains shown)
VH: QVQLQQSGPGLVKPSQTLSLTCAISGNSVSSNSAAWNWIRRSPSRGLEWLGRTYYRSKWYNDYAVSVKSRITIKPDTSKNQFSLQLNSVTPEDTAMYYCARGFCSGGRCYSFDYWGPGTLVTVSS
VL: QSVLTQPASVSGSPGQSITISCTGTDSDVGAYGSASWYRHSPGKAPQLIIYDVTNRPSGVSNRFYGSKSGNTASLTISGLQAEDEADYYCQAWDSGIHVVFGGGTQLTVL
notes: VH of phage clone 35 from the human scFv phage display library; human IgG heavy-chain constant region (CH1, CH2 and CH3) of the vector pHIgH5zeo; VL of phage clone 35 from the human scFv phage display library; human IgG light-chain constant region (CL) of the vector pHIgL5hyg; Whole human IgG format (VH-CH1-CH2-CH3 and VL-CL); also called anti-CR-1 Ab Clone 35; anti-CR-1 Clone 35 antibody
B6: anti-CR-1 antibody Clone 242 (antibody, V domains shown)
VH: QVQLVESGGGLVQPGGSLRLSCAASGFTFSNKPMSWVRQAPGKGLEWLSAISGSGVYAYFADSAKGRFTISRDNSKNTPYLQMNSLRAEDTAMYYCARQHITMLPGWFDPWGQGTLVTVSS
VL: QSVLTQPPSASGSPGQSVTISCTGSSSDVGGYNYVSWYQQHPGKAPKLMIYEVSKRPSGVPDRFSGSKSGNTASLTVSGLQAEDEAEYHCATWDNSLSSWVFGRGTQLTVL
notes: VH of phage clone 242; human IgG heavy chain constant region CH1-CH2-CH3 from the vector pHIgH5zeo; VL of phage clone 242; human IgG light chain constant region CL from the vector pHIgL5hyg; whole human IgG built from the VH and VL of the scFv phage clone; also called anti-CR-1 Ab; source: ExpiCHO-S, transfected, conditioned medium
B7: anti-CR-1 antibody Clone 212 (antibody, V domains shown)
VH: QVQLQQSGPGLVKPSQTLSLTCGISGDSVSSNSAAWNWIRQSPSRGLEWLGRTYYRSQWYNDYAVSVNSRITINPDTSKNQFSLQLNSVTPEDTAMYYCARTLRTPLADDYYYSGMDAWGQGTTVTVSS
VL: QSVLIQPASVSGSPGQSITISCTGTSSDVGSYNLASWYQHHPGKAPKLMIYEVNNRPSGVSNRFSGSKSGNTASLTISGLQAEDEADYYCQVWDGSGDPHAVFGGGTQLTVL
notes: VH of phage clone 212; human IgG heavy chain constant region CH1-CH2-CH3 from the vector pHIgH5zeo; VL of phage clone 212; human IgG light chain constant region CL from the vector pHIgL5hyg; whole human IgG built from the VH and VL of the scFv phage clone; also called anti-CR-1 Ab; source: ExpiCHO-S, transfected, conditioned medium
B8: anti-CR-1 antibody Clone 226 (antibody, V domains shown)
VH: QVQLQQSGPGLVKPSQTLSLTCAISGDSVSSNSAAWNWIRQSPSRGLEWLGRTYYRSKWYNDYAVSVKSRITINPDTSKNQFSLQLNSVTPEDTAVYYCTPTPTWWPVRWGQGTLVTVSS
VL: QSALTQPRSVSGSPGQSVTISCTGTSGDVGYYDHVSWYQQHPGKAPKLFIYDVTKRPSGVPDRFSASKSGNTASLTISRLQAEDEAEYHCLTWGNSAVFGGGTQLTVL
notes: VH of phage clone 226; human IgG heavy chain constant region CH1-CH2-CH3 from the vector pHIgH5zeo; VL of phage clone 226; human IgG light chain constant region CL from the vector pHIgL5hyg; whole human IgG built from the VH and VL of the scFv phage clone; also called anti-CR-1 Ab; source: ExpiCHO-S, transfected, conditioned medium
B9: anti-CR-1 antibody Clone 292 (antibody, V domains shown)
VH: QVQLQQSGPGLVKPSQTLPLTCAIYGDSVSSNSAAWNWIRQSPSRGLEWLGRTYYRSKWYNDYAVSVQSRITINPDTSKNQFSLQLNSVTPEDTAMYYCAKGKLSLEVITTRGWDWGQGTLVTVSS
VL: QSVLTQPRSVSGSPGQSVTISCTGTRADVGTYHYVSWYQRHPGKAPKLIIYDVSKRPSGVPDRFSGSKSGNTASLTVSGLQAEDEADYYCQSADSSGTYVIFGGGTQLTVL
notes: VH of phage clone 292; human IgG heavy chain constant region CH1-CH2-CH3 from the vector pHIgH5zeo; VL of phage clone 292; human IgG light chain constant region CL from the vector pHIgL5hyg; whole human IgG built from the VH and VL of the scFv phage clone; also called anti-CR-1 Ab; source: ExpiCHO-S, transfected, conditioned medium

How the values were obtained:
[1] = target: T1, recombinant soluble human CR-1 protein (Homo sapiens, UniProt P13385); test: BLI; Octet RED96; rshCR-1 immobilised on Amine Reactive (AR2G) biosensor; anti-CR-1 Abs in ExpiCHO-S conditioned medium as analyte; conditions: one partner purified
T1 construct: Cripto-1 (CR-1), human, recombinant soluble form; also called rshCR-1; rhsCR-1
T1 sequence (P13385 31-150): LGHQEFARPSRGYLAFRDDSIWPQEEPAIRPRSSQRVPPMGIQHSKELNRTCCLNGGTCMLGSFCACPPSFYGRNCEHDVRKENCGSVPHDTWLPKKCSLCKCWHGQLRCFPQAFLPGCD

[2] = target: Cripto-1 (CR-1) in CR-1 overexpressing human cancer cell lines and cancer tissues (Homo sapiens, UniProt P13385); test: cell-based or functional assay
Sequence of Cripto-1 (CR-1) in CR-1 overexpressing human cancer cell lines and cancer tissues (P13385 31-150): as above

[3] = target: T2, recombinant soluble human CR-1 protein (rshCR-1) (Homo sapiens, UniProt P13385); test: BLI; Octet; rshCR-1 (2 ng/mL) fixed to amine reactive biosensor; purified antibody 25-200 nM; global fitting, steady state analysis section; conditions: both partners purified
T2 construct: Cripto-1 (CR-1), human, recombinant soluble form; also called rhsCR-1; recombinant Cripto-1
T2 sequence (P13385 31-150): as above

Binder | koff [1] [s⁻¹] | growth inhibition of GEO cells overexpressing CR-1 (MTT, 72 h), antibody 2.1–136 µg/mL (14–900 nM); IC50 [2] [nM] | koff [3] [s⁻¹]
B1 | 0.0196 |  | 
B2 | 0.0181 |  | 
B3 | 0.0191 |  | 
B4 | 0.0186 |  | 
B5 |  | ~110 | 0.0114
B6 | 0.0187 |  | 
B7 | 0.0209 |  | 
B8 | 0.0194 |  | 
B9 | 0.0207 |  | 
